Publication PMC8649222, “Exclusive inhibition of IL-6 trans-signaling by soluble gp130^FlyRFc” (Cytokine: X, 2021)
Numbering of substitutions follows the chain as printed.

B1: IL-27 (complex)
chain 1: FPRPPGRPQLSLQELRREFTVSLHLARKLLSEVRGQAHRFAESHLPGVNLYLLPLGEQLPDVSLTFQAWRRLSDPERLCFISTTLQPFHALLGGLGTQGRWTNMERMQLWAMRLDLRDLQRHLRFQVLAAGFNLPEEEEEEEEEEEEERKGLLPGALGSALQGPAQVSWPQLLSTYRLLHSLELVLSRAVRELLLLSKAGHSVWPLGFPTLSPQP
chain 2: RKGPPAALTLPRVQCRASRYPIAVDCSWTLPPAPNSTSPVSFIATYRLGMAARGHSWPCLQQTPTSTSCTITDVQLFSMAPYVLNVTAVHPWGSSSSFVPFITEHIIKPDPPEGVRLSPLAERQLQVQWEPPGSWPFPEIFSLKYWIRYKRQGAARFHRVGPIEATSFILRAVRPRARYYVQVAAQDLTDYGELSDWSLPATATMSLGK
B2: Hyper IL-11 (HIL-11), IL-11 covalently linked to sIL-11R (other)
chain: SSPCPQAWGPPGVQYGQPGRSVKLCCPGVTAGDPVSWFRDGEPKLLQGPDSGLGHELVLAQADSTDEGTYICQTLDGALGGTVTLQLGYPPARPVVSCQAADYENFSCTWSPSQISGLPTRYLTSYRKKTVLGADSQRRSPSTGPWPCPQDPLGAARCVVHGAEFWSQYRINVTEVNPLGASTRLLDVSLQSILRPDPPQGLRVESVPGYPRRLRASWTYPASWPCQPHFLLKFRLQYRPAQHPAWSTVEPAGLEEVITDAVAGLPHAVRVSARDFLDAGTWSTWSPEAWGTPSTGTIPKEIPAWGQLHTQPEVEPQVDSPAPPRPSLQPHPRLLDHRDSVEQVAVLAPGPPPGPPRVSPDPRAELDSTVLLTRSLLADTRQLAAQLRDKFPADGDHNLDSLPTLAMSAGALGALQLPGVLTRLRADLLSYLRHVQWLRRAGGSSLKTLEPELGTLQARLDRLLRRLQLLMSRLALPQPPPDPPAPPLAPPSSAWGGIRAAHAILGGLHLTLDWAVRGLLLLKTRL
B3: sgp130Fc (Fc fusion, human, UniProt P40189 23-619, looked up)
chain: ELLDPCGYISPESPVVQLHSNFTAVCVLKEKCMDYFHVNANYIVWKTNHFTIPKEQYTIINRTASSVTFTDIASLNIQLTCNILTFGQLEQNVYGITIISGLPPEKPKNLSCIVNEGKKMRCEWDGGRETHLETNFTLKSEWATHKFADCKAKRDTPTSCTVDYSTVYFVNIEVWVEAENALGKVTSDHINFDPVYKVKPNPPHNLSVINSEELSSILKLTWTNPSIKSVIILKYNIQYRTKDASTWSQIPPEDTASTRSSFTVQDLKPFTEYVFRIRCMKEDGKGYWSDWSEEASGITYEDRPSKAPSFWYKIDPSHTQGYRTVQLVWKTLPPFEANGKILDYEVTLTRWKSHLQNYTVNATKLTVNLTNDRYLATLTVRNLVGKSDAAVLTIPACDFQATHPVMDLKAFPKDNMLWVEWTTPRESVKKYILEWCVLSDKAPCITDWQQEDGTVHRTYLRGNLAESKCYLITVTPVYADGPGSPESIKAYLKQAPPSKGPTVRTKKVGKNEAVLEWDQLPVDVQNGFIRNYTIFYRTIIGNETAVNVDSSHTEYTLSSLTSDTLYMVRMAAYTDEGGKDGPEFTFTTPKFAQGEIE
B4: sgp130^R281QFc (Fc fusion, human, UniProt P40189 23-619, looked up)
chain: B3 chain with R259Q
B5: sgp130^FlyFc (Fc fusion, human, UniProt P40189 23-619, looked up)
chain: B3 chain with T80Y, Q91F, N92L

Legend:
sgp130^FlyFc [1] = molecular target: B5; test: SPR; sgp130Fc and sgp130^FlyFc captured on a ProtA chip; increasing concentrations of IL-27 injected; conditions: both partners purified
sgp130Fc [2] = molecular target: B3; test: as above; conditions: both partners purified
sgp130^FlyFc [3] = molecular target: B5; test: SPR; Biacore X100, multi-cycle; sgp130Fc variants captured on a Protein A chip (~500 RU); HIL-6 or HIL-11 injected at 0.1953-50 nM, 30 µl/min; 25 °C, PBS pH 7.4, 0.05% surfactant P20; 1:1 binding model; conditions: both partners purified
sgp130Fc [4] = molecular target: B3; test: as above; conditions: both partners purified
sgp130^R281QFc = molecular target: B4; test: as above; conditions: both partners purified
[5] = molecular target: B2; test: cell-based or functional assay

Binder: B1
Kd (sgp130^FlyFc [1]): 58 nM | Kd (sgp130Fc [2]): 69 nM

Binder: B2
Kd (sgp130^FlyFc [3]): 0.67 nM | Kd (sgp130Fc [4]): 0.069 nM | Kd (sgp130^R281QFc): 0.61 nM

Binder: B3
IC50 of inhibition of H-IL-11 (10 ng/ml) induced proliferation of Ba/F3-gp130 cells (blocks HIL-11 from membrane-bound gp130) [5]: 0.12 nM

Binder: B4
IC50 of inhibition of H-IL-11 (10 ng/ml) induced proliferation of Ba/F3-gp130 cells (blocks HIL-11 from membrane-bound gp130) [5]: 72.8 nM

Binder: B5
IC50 of inhibition of H-IL-11 (10 ng/ml) induced proliferation of Ba/F3-gp130 cells (blocks HIL-11 from membrane-bound gp130) [5]: 40.7 nM
